A short description of this data set: label from the status in PepcDB records.
Regarding “MASSTRSTRSTPARGKSKGASGNVTPWLWMAFALLVVMIDQFFKVVITRSFQYGESRPITSFFNLVLVYNKGAAFSFLADAGGWQRWFFTLLGVVVGAFIIWLLYRHTGQKLFCLAVSLILGGAVGNVVDRIIHGHVIDFLDFHLRNTHFPAFNVADCAITLGAILLIVDELRRVRRH”, the protein production entry was “failed”.

As for “MASSTTSTVTDLSAALVMAPVPLADWLIILPIALCIGAGAVLMMMRHAIRHHAAVAIAALSLLVILNAALLWKVATQGPFTMVMGRWLPPFGIAFTADLTGALLSLAAAIVALAGAIHAGADIDASGRRYGFYPFLMLLMAGVTGAFLTGDLFNLYVWFEVLLISSFGLIVLGSTREQIDGALKYAILNLIGTTLFLITVGYLYAIFGTLNMADIALKATELRGTAPLMTLASLFALAFAMKAAAFPVNFWLPASYHTPRIVVSALFGGLLTKVGIYSLLRVMVMLFPVEREELSIVIAISAALTMVLGAMGALAQNDIRRMLGYIVISGIGYMMAGIAIGTPSGVSGAIFYALHSMVLMTALYLAAGHAARLGGGFSLTSLGDLYRQAPWFSALALALFFAGSGLPPFSGFWPKAVLVKSAIDIGAWWLAAAILVSGFIATIAFGRVFLLCFWRPVTTSAGQPALQPAARPPAPSVAPLVGLTLLVVFFGLFPESLLNLSQQAAAGLGNPQAYIQSVFPQGGKP”, the protein production entry was “failed”.

As for “MASSVDEEALHQLYLWVDNIPLSRPKRNLSRDFSDGVLVAEVIKFYFPKMVEMHNYVPANSLQQKLSNWGHLNRKVLKRLNFSVPDDVMRKIAQCAPGVVELVLIPLRQRLEERQRRRKQ”, the protein production entry is “not failed”. Under “MASTIYTCKECGSDLNLNPNDLFPPDFYFEAGNKGTLSFAAVDAEKFRFEKEDKIMPFFETLNYWGIQRKRTKIKCTSCNHLIGYIYDDGPPLTGGIGQYGFGPSQVIPRAPRYRFKTKARQDGWQYGGLTAFWN” stands “failed”.

On to “MASTVSVQPGRIRILKKGSWQPLDQTVGPVVYWMFRDQRLKDNWALIHAVDLANRTNAPVAVVFNLFDQFLDAKARQLGFMLKGLRQLHHQIDSLQIPFFLLQGDAKETIPNFLTECGASHLVTDFSPLREIRRCKDEVVKRTSDSLAIHEVDAHNVVPMWAASSKLEYSARTIRGKINKLLPDYLIEFPKLEPPKKKWTGMMDKKLVDWDSLIDKVVREGAEVPEIEWCVPGEDAGIEVLMGNKDGFLTKRLKNYSTDRNNPIKPKALSGLSPYLHFGQVSAQRCALEARKVRSTSPQAVDTFLEELIVRRELSDNFCYYQPHYDSLKGAWEWARKSLMDHASDKREHIYSLEQLEKGLTADPLWNASQLEMVYQGKMHGFMRMYWAKKILEWTKGPEEALSISIYLNNKYEIDGRDPSGYVGCMWSICGVHDQGWKERPVFGKIRYMNYAGCKRKFNVDSYISYVKSLVSVTKKKRKAEEQLTRDSVDPKITIV”, for which the protein production result is on record as “failed”. Under “MASVSVSHLILFIASMAIAASVAGVFTSSIGELSNAVSEQGLDVSSDVRTDVEIISDSGSDTIYDSGANTITVHVKNTGSETLAPVPGQVDVFVDGTFASDYTVTLEPNGGNSWRPGEVVRIDINDNLSGGDHRLKLIVNGDEEVFEFNT” stands “failed”; under “MASWSLRTVPPKMGRVVNCQNHITAGGGRRTLMKIILTGATGFVGCSLVPLLHQQGHELTLLVRSVSKAQRLFAPGSFPQLKAIAYEATKSGDWQKVVDGQDAVINLAGEPISERWTEAYKAEIFDSRKLGTEKLVEAIAKADRKPQVMISGSAIGYYGTSETATFTESSKPGDDFLAEVCQAWENAAHQVEQLGVRLVVFRIGIVLGADGGALAKMLPPFKLFAGGPLGSGEQWFSWIDRRDLIALIDKALTDSTLRGTYNATAPNPVKMKEFCHTLGKVLARPSWLPVPDIALELLLGEGAKLVLEGQEVLPGAISKTDFQFQAPDLETSLRQILGS”, “failed”; under “MASYDQISKNNWRYRISLGKNAETGKYEYISKTGFKRKSDAKHQAEMIGRQLRNGDYIAPSSSTFKQVADDWLKQYANDVKVSSVRAREKAIQHAIERFNTKPIQTIKKHDYQRFVDDISAQYSKNYVDSIVASTNMIFKYAYDTRLIKAMPSEGIKRPKKKVSVEELEDIEIHKKFLEKDELFQFLKVAKYHHSPQNSFEVFTTLAYTGMRAGELLALKWSDIDFENNTISITKTYYNPNNNKKHYQILTRKTESSIGKITVDPHVIQLLKDYKVNVQDTWKNELYVDNNFVFTDVNGYPLVIKKLQLWIKAILKKTDITNKQISTHSFRYTHYALLIEAGVHIKEIQERLRHKDINTTMNIYAKITNSYKKDASQKFSKLMENVSKGLF”, “failed”. Under “MASYTLRQLKYFVTTVECGSVAEASRKLYIAQPSISTAVKGLEESFGVQLFIRHHAQGVSLTPAGARFYRKAQELLRMAHEFEQNALADNDVIAGQIDIGCFETVAPLYLPGLIAGFRQAYPGVEIRIRDGEQQELVQGLTSGRFDLAFLYEHDLDSTIETEPLMPPQRPHALLPEGHRFAGQAQVSLRDLCLEPMILLDVQPSRTYFVSLFEELGLTPNIAFSSPSIEMVRGMVGQGFGFSLLVTRPHSECTYDGKKVVMVDLAEPVSTSGLAAAWLKRAQLTKPARLFVDYCREQLGKLAERRH” stands “not failed”; under “MATAGNPWGWFLGYLILGVAGSLVSGSCSQIINGEDCSPHSQPWQAALVMENELFCSGVLVHPQWVLSAAHCFQNSYTIGLGLHSLEADQEPGSQMVEASLSVRHPEYNRPLLANDLMLIKLDESVSESDTIRSISIASQCPTAGNSCLVSGWGLLANGRMPTVLQCVNVSVVSEEVCSKLYDPLYHPSMFCAGGGQDQKDSCNGDSGGPLICNGYLQGLVSFGKAPCGQVGVPGVYTNLCKFTEWIEKTVQAS”, “not failed”; under “MATASIAIAETPLVNYALRRGDDALVLGHRLSEWCGHAPMLEEDMALANIGLDLIGQARELFNYAAEVEGAANTEDSLAYLRDVRQYRNLLLVEQPNGDFARTMLRQLFYSAFADSYWRAMMGSSDPTLAAIAAKSEKESAYHLRHASEWVIRLGDGTEESHRRAQAAVDELWAFTGEMFQVDDGDAALIADGIAIDPERLRAGWSETVASVLARATLQQPSSSWMQKGGRAGHHSEHLGHLLSELQSLQRSFPGATW”, “failed”. Under “MATATETSKATTKTQASAAADRESLTVSRAFNAPRDLVFQAWSAAEHLKHWFCPQGFTIPECEVEFRPGGKFDLWMRSLDGNYSHWIRGHYVEIIPHSRLVLDMTVVTEAGVALFNANTSVTFETVCGGTEMSVTQRYTALDPSAGNFTRGAEEGWAQTLDRLEKEVARIAAATPARSVAHGVFTIERTYDASPELVFRALSDPVAKAQWFNGGPGYTEVKRTMDVRPGGREHLQGRWENGLVSTFDAVYFDVIPNERLVYSYEMHMGERKISVSLATFELKRAGQGTRLVMTEQGAFLDGYDDAGSREHGSGLLLDAIGEWLKAMTKR” stands “failed”. For the sequence “MATDTAERRIAHVRGVTVTAIACLAGVAAAVVSAAVADGAGDTLGLYVLVGGIIVQFPLLRVLEMAGLQLDVDDFGAKDYLYIAFMTFAMWFVCWTVLLTTGASV”, the protein production entry is “failed”.

Take “MATEPLTHPTAAPKRTRDLLAGLSIAGLLLPEAVAYSSIAALPPQAGVIALFAGLLCYGLLGTSRFAIVSATSSSAAVLAAATLSLAGGDAQLRLSLAFALVLLTGVFFLLAGLFRLGGVTAFIAKPVLRGFAFGLALTIVLKQFATVVGVHLSTGNLVRFLPQLLEQWPQWNWAGAAVAAVALLVLGICSRIPYVPGGLVAVVIGIGAGQWFNLPAHGVDLIGVIELKLEVPSLPQLPFADWLRLGELAFALVMILYAESYGSISSFALKHGDRVSSNRDLLALGASNLLSGLFHGMPAGAGYSATSANEAAGARSRLAGLTAAAVMLLIVLTVLPYIALTPEPVLAAIVMYALGHGLSLQPLGRYFIWRRDRVLVICAVSAVLVLGVLDGLLLSVGISILLLLRQMSAADIQILGQLGSGHDFVDLSRHPQARQVPGVLILRPGEALFFANAERILGGALRLIRHVQAPIHSIILSLEESPDLDGTSIEALDEFFRQVSLEHKHLALARLKHEAKDALALLPSSREYQVLLSGTSVDDTLQESLRGWKAGAFSQA”: the protein production entry is reported as “failed”. The value for “MATFSLGKHPHVELCDLLKLEGWSESGAQAKIAIAEGQVKVDGAVETRKRCKIVAGQTVSFAGHSVQVVA” was “not failed”. Turning to “MATGQDRVVALVDMDCFFVQVEQRQNPHLRNKPCAVVQYKSWKGGGIIAVSYEARAFGVTRSMWADDAKKLCPDLLLAQVRESRGKANLTKYREASVEVMEIMSRFAVIERASIDEAYVDLTSAVQERLQKLQGQPISADLLPSTYIEGLPQGPTTAEETVQKEGMRKQGLFQWLDSLQIDNLTSPDLQLTVGAVIVEEMRAAIERETGFQCSAGISHNKVLAKLACGLNKPNRQTLVSHGSVPQLFSQMPIRKIRSLGGKLGASVIEILGIEYMGELTQFTESQLQSHFGEKNGSWLYAMCRGIEHDPVKPRQLPKTIGCSKNFPGKTALATR”, the protein production result is recorded as “failed”. In the case of “MATIQAFWRFSRPHTIIGTTLSVWAVYLLTILGDGNSVNSPASLDLVFGAWLACLLGNVYIVGLNQLWDVDIDRINKPNLPLANGDFSIAQGRWIVGLCGVASLAIAWGLGLWLGLTVGISLIIGTAYSVPPVRLKRFSLLAALCILTVRGIVVNLGLFLFFRIGLGYPPTLITPIWVLTLFILVFTVAIAIFKDVPDMEGDRQFKIQTLTLQIGKQNVFRGTLILLTGCYLAMAIWGLWAAMPLNTAFLIVSHLCLLALLWWRSRDVHLESKTEIASFYQFIWKLFFLEYLLYPLALWLPNFSNTIF”, the protein production result is “failed”. The value for “MATKHEQILTYIDSLPVGEKISVRRIAKEMKVSEGTAYRAIKEAENKGFVSTIERVGTIRIEQKKKENIEKLTYAEVVNVIDGQVLGGRAGLHKTLNKFVIGAMELDAMMRYTAAGNLLIVGNRINAHRQALEAGAAVLVTGGFNTDDSIVQLADELELPILSTSYDTFTVAAMINRAIYDQLIKKEIVLVEDILTPADRTVYLSPKDKLEKWYEKNFETGHGRFPVVDDQMKIHGILTSKDIAGHDRNASIEKVMTKNPVTVIGKTSVASAAQMMVWEGIEVLPVTDGHQKLIGMISRQDVLKALQMIQKQPQVGEKLDDIVSRGFKDEGDDKEDQTVYEYEVTPQMTNQLGTISYGVFTTILTQAANRFLRSKKRGELVIESITIFFLKPVQMESVIEVKPRILEAGRKFGKMEVEVHSQGHIVSKAMLMVQLMERS” was “failed”; that for “MATLPASKSASKVALTSEVEDEGIKEHTFQEIEKLQDLGINAADINKLKGSGYCTILSLIQTTKKELCNVKGISEAKVDKILEVASKIENCSSFITANELVQKRSKVLKITTGSTVFDQTLGGGIESMCITELFGENRCGKTQVCHTLAVTAQLPKSLNGGNGKVCYIDTEGTFRPEKVCKIAERYGLDGEAVLDNILYARAFTHEHLYQLLAISAAKMCEEPFALLVVDSIISLFRVDFSGRGELSERQQKLNKTMSILSKLSEQFNIAILITNQVMSDPGATMTFIANPMKPVGGHVIGHASTIRLSLRKGKGDQRVCKVYDAPNLPEVECIFQLSDKGVIDATD” was “failed”. “MATNLIGLDTTQSQKLANALNNLLANYQVFYMNTRGYHWNIQGKEFFELHAKFEEIYTDLQLKIDELAERILTLSARPMHSFSGYLKAAQIKEHTDSIDGRSSMQGLVDGFSILLHQQRDILELAGETGDEGTSALMSDYIREQEKLVWMLNAWLK”: the protein production entry is recorded as “not failed”. Under “MATPTEHEDLSEQEVTEDEFKTPKIRETPEDIKLEAIVNTIAFHPKQDILAAGDIDGDIYLFSYSCTEGENKELWSSGHHLKSCRKVLFSSDGQKLFSVSKDKAIHIMDVEAGKLETRIPKAHKVPINAMLLIDENIFATGDDEGTLKVWDMRKGTSFMDLKHHEDYISDITIDQAKRTLLTSSGDGTLGVFNIKRRRFELLSEIQNGDLTSVSIMKRGRKVVCGSGEGTIYIFNWNGFGATSDRFAVQAESVDCIVPITDSILCAASTDGVIRAINILPNRVVGSIGQHVGEAIEEIARCRDTHFLASCAHDELIKFWDISSLPDEKVNDYRRRKKKDRRLKALSNKAFDTGQNFFAGLLDTTEENGKEGENDEDDDDEDSDSGSD” stands “not failed”.

Values taken from a protein production outcome set (Wang et al. 2014).
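Further: failed if final PepcDB status was selected cloned or expressed and not failed if soluble or beyond.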
